Results as given in patent US20250115677A1, “Anti-CEA Antibody Drug Conjugates and Methods of Use” (BeiGene Switzerland GmbH, priority 2022, published 2025).

Legend:
[1] = biological target: T1, human CEA on cells (MKN45, LOVO, NCI-H2122, LS174T, CT26/CEA) (human, UniProt P06731 35-685); experiment: flow cytometry on MKN45 cells, no soluble CEA, anti-huFc-APC
T1 construct: Full-length human CEA, endogenous on tumour cell lines or transduced; also called native CEA on living cells; huCEA surface protein
T1 sequence: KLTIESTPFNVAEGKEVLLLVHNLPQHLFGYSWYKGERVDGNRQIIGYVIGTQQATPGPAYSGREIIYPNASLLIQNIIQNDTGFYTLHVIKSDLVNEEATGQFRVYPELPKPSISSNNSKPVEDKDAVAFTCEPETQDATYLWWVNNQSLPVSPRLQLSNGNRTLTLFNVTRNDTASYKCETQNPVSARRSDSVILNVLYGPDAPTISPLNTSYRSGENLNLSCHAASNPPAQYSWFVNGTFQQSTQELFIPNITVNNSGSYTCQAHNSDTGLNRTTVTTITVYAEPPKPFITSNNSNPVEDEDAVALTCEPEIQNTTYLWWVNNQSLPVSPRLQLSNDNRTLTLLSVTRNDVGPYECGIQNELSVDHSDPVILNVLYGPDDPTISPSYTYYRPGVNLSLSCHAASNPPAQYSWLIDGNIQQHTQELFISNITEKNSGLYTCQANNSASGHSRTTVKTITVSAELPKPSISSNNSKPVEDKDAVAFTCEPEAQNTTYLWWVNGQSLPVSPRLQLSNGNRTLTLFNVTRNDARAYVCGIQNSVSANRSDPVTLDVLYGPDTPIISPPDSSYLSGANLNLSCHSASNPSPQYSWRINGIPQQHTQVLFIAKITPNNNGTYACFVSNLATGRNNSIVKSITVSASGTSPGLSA
Method: (§1) The mixtures were then incubated with 2×10^5 CEA-expressing cells, such as MKN45 cells, for 30 minutes at 4° C. The cells were stained with secondary antibody anti-huFc-APC (Cat. No. 409320, BioLegend, USA) and analyzed by flow cytometry.

[2] = biological target: T2, CEACAM6 (bar group in Fig. 9B, flow cytometry) (human, UniProt P40199); experiment: flow cytometry, Alexa Fluor 647 anti-human IgG Fc
T2 construct: on cells (flow cytometry)
T2 sequence (single chain, looked up): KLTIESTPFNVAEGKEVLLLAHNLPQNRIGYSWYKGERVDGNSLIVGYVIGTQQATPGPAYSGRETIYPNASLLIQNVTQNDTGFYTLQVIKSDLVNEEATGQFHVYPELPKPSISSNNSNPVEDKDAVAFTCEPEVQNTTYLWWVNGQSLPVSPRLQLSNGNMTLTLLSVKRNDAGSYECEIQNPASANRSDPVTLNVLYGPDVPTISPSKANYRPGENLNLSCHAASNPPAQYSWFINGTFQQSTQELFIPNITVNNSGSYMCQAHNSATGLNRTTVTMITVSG
Method: (§2) Cell fluorescence was quantified using a flow cytometer (Guava easyCyte™ 8HT, Merck-Millipore, USA). For antigen ELISA, CEACAM1(SEQ ID NO:64) (Cat. No. 10822-H08H, Sino Biological, China), CHIM (SEQ ID NO:63), CEA (SEQ ID NO:55) or CEACAM6 (SEQ ID NO:57) were coated in 96-well plates at a concentration of 10 μg/ml overnight at 4° C.

[3] = biological target: T1, human CEA on cells (MKN45, LOVO, …); experiment: flow cytometry on MKN45 cells, BGA5384 premixed with 1.00 ug/ml recombinant soluble CEA (competitor), anti-huFc-APC
Method: as §1

[4] = biological target: T3, CEACAM1 (Cat. No. 10822-H08H, Sino Biological) (Homo sapiens (Human), UniProt P13688 35-428); experiment: antigen ELISA, antigen coated at 10 ug/ml, HRP anti-human Fc
T3 construct: Bought protein
T3 sequence: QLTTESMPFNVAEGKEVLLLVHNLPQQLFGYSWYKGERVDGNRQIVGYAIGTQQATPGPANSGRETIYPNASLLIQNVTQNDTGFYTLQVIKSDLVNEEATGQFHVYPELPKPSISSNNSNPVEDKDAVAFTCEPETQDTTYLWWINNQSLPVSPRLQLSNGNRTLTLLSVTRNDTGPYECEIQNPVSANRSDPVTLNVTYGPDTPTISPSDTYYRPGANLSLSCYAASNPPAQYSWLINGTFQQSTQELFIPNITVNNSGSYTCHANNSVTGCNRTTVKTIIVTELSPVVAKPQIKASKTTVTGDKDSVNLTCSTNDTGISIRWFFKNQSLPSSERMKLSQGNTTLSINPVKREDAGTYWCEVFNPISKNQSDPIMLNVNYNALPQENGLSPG
Method: as §2

[5] = biological target: T4, recombinant human CEACAM6 (AA 1-320, C-terminal 6xHis) (human, UniProt P40199 35-320); experiment: as above
T4 sequence: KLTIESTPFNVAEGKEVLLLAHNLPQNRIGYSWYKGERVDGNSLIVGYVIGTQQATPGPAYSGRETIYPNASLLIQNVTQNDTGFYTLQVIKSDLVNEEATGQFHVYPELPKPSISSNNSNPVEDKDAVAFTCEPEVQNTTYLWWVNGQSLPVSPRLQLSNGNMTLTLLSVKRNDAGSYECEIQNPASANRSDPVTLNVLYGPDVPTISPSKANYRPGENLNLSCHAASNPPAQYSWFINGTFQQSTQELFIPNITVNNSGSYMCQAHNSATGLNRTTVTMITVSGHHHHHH
Method: as §2

[6] = biological target: T1, human CEA on cells (MKN45, LOVO, …); experiment: flow cytometry (MFI) on CEA-expressing MKN45 cells
Method: For flow cytometry, CEA-expressing MKN45 cells (10^5 cells/well) were incubated with various concentrations of purified affinity-matured antibodies, followed by binding with Alexa Fluor-647-labeled anti-hu IgG Fc antibody (Cat. No. 409320, BioLegend, USA). Cell fluorescence was quantified using a flow cytometer (Guava easyCyte™ 8HT, Merck-Millipore, USA).

- EC50 (read off the curve) [1]: ~0.7 µg/mL
- binding result [2]: no binding
- EC50 (read off the curve) [3]: ~2 µg/mL
- binding result [4]: no binding
- binding result [5]: no binding
- EC50 [6]: 2.92 µg/mL
B1: BGA5384 (antibody, human IgG1, kappa, V domains shown)
VH: QVQLVQSGAEVKKPGASVKVSCKASGYIFTSYYLHWVRQAPGQGLEWIGYINPQTGKTSYAQKFQGRVTMTRDTSTSTVYMELSSLRSEDTAVYYCAREYGNYNYPLDYWGQGTLVTVSS
VL: DIQMTQSPSSLSASVGDRVTITCRASENQYGYLAWYQQKPGKVPKLLIYNYKNLVEGVPSRFSGSGSGTDFTLTISSLQPEDVATYYCQHHLGTPYTFGQGTKVEIKR
notes: BGA6710 with Y57K in VH; human IgG1 format; also called BGA7592-1K
